# Source: patent publication US20080181899A1 (Regeneron, published 2008)
# T1: mmDII4-mFc (M. mulatta, UniProt Q9NR61 27-524 (human entry))
# T1 construct: also called mmDII4 dimer; not shown: mouse Fc
# T1 chain: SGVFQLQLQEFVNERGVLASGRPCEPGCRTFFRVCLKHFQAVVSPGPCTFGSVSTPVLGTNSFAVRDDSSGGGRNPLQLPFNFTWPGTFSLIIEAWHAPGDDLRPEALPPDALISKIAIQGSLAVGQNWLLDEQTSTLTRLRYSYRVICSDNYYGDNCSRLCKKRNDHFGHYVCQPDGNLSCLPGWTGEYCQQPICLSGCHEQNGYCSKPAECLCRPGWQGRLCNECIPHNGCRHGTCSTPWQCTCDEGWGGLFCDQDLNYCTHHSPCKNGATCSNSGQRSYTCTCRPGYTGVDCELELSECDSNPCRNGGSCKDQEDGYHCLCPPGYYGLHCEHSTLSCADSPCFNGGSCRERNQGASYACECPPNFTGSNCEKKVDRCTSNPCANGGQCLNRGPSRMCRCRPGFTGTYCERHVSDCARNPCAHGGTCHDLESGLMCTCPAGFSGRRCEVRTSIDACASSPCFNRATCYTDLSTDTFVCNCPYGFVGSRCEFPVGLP
# T2: hDII3-hFc (human delta-like ligand 3 fused to human Fc) (human, UniProt Q9NYJ7 27-490)
# T2 construct: not shown: human Fc
# T2 sequence: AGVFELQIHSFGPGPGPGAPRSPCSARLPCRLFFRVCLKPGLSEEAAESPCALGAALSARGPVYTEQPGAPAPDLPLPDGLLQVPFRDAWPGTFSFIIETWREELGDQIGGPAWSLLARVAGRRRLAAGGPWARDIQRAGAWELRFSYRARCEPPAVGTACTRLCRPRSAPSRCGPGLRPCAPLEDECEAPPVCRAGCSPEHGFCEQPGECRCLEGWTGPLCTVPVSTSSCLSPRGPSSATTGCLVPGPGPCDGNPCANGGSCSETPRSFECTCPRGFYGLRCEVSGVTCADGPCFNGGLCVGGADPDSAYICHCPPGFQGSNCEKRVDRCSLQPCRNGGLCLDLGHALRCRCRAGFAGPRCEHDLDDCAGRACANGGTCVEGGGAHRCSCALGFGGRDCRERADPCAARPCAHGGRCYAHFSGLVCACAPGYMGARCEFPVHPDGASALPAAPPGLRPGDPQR
# Key:
# [1] = target: T3, monomeric hDII4 (human delta-like ligand 4) (human, UniProt Q9NR61 27-524); assay: SPR BIACORE; antibody captured by anti-hFc; monomeric DII4 analyte
# T3 construct: also called monomeric DII4 protein
# Procedure: (§1) Equilibrium dissociation constants (KD values) for antigen binding to the selected antibodies described above were determined by surface kinetics on a real-time biosensor surface plasmon resonance assay (BIACORE™ 2000). The antibody was captured on a goat anti-mouse IgG polyclonal antibody surface created through direct chemical coupling to a BIACORE™ chip to form a captured antibody surface. […] Kinetic analysis was performed to calculate KD, dissociation rate constants, and half-life of antigen/antibody complex dissociation (Table 1). […] Antibodies were presented by goat anti-hFc polyclonal antibody reagent (Jackson Immuno Research Lab) immobilized on BIACORE™ chip, and exposed to either dimeric DII4-mFc or monomeric DII4 protein (Table 2).
# [2] = target: hDII4 on cells (DII4 expressing HUVEC; engineered C6 rat glioma cells expressing hDII4) (human, UniProt Q9NR61 27-685); assay: cell-based or functional assay
# Sequence of hDII4 on cells (DII4 expressing HUVEC; engineered C6 rat glioma cells expressing hDII4) (Q9NR61 27-685 limits assumed, stated change not applied): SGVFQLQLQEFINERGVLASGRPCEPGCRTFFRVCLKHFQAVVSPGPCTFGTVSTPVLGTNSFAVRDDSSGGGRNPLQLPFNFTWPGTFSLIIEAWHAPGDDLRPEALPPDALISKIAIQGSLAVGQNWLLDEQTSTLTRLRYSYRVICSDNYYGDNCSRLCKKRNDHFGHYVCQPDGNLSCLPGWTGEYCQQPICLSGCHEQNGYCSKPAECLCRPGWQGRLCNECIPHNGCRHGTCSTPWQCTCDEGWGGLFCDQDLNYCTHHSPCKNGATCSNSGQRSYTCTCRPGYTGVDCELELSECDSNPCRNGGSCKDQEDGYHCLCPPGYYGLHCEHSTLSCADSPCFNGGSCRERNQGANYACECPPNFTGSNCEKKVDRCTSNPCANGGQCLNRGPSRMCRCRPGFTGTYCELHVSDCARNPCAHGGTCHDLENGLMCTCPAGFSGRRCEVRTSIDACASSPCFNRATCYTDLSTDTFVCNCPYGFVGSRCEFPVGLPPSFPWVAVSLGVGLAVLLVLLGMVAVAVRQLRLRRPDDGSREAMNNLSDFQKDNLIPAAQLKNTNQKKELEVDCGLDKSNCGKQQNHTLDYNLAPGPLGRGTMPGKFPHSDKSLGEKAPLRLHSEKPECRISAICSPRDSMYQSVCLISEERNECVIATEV
# [3] = target: T4, chimeric DII4 protein #3 (human N-terminal, DSL, EGF-1 and EGF-2 domains, S27-Q283, in mouse DII4) fused to … (human; mouse, UniProt Q9JI71 285-525); assay: SPR BIACORE; DII4 protein captured by anti-mouse IgG; antibody at 100 µg/ml
# T4 construct: not shown: mouse IgG2a-Fc fragment
# Procedure: (§2) Briefly, each of the DII4 proteins was captured (240-470 RU) on goat anti-mouse IgG antibody surfaces, followed by injection of test antibody at a concentration of 100 μg/ml (Table 11).
# [4] = target: T5, chimeric DII4 protein #5 (human N-terminal domain, S27-R172, in mouse DII4) fused to mouse IgG2a-Fc (human; mouse, UniProt Q9JI71 174-525); assay: as above
# T5 construct: not shown: mouse IgG2a-Fc fragment
# Procedure: as §2
# [5] = target: T6, chimeric DII4 protein #1 (human N-terminal and DSL domains, S27-Q218, in mouse DII4) fused to mouse IgG2a-Fc (human; mouse, UniProt Q9JI71 220-525); assay: as above
# T6 construct: Used as CHO-K1 conditioned medium; not shown: mouse IgG2a-Fc fragment
# Procedure: as §2
# hDII4-mFc [6] = target: T7, hDII4-mFc (human, UniProt Q9NR61 27-524); assay: SPR BIACORE; antibody captured by anti-hFc; dimeric DII4-mFc analyte
# T7 construct: also called dimeric DII4-mFc; not shown: mouse Fc
# Procedure: as §1
# hDII4-mFc [7] = target: T7, hDII4-mFc; assay: SPR BIACORE; antibody captured by anti-hFc; dimer analyte
# mmDII4-mFc = target: T1, mmDII4-mFc; assay: as above
# dimeric hDII4-hFc [8] = target: T8, dimeric hDII4-hFc (human, UniProt Q9NR61 27-524, biotin in Example 3 (biotin-DII4-hFc), site not stated); assay: cell-based or functional assay
# dimeric hDII4-hFc [9] = target: T8, dimeric hDII4-hFc; assay: competition ELISA; antibody titrated against 25 pM biotin-DII4-hFc; free biotin-DII4-hFc on Notch-hFc plate
# Procedure: The ability of the antibodies to block DII4 binding to Notch was evaluated with an ELISA-based immunoassay. Briefly, Notch-hFc recombinant protein was coated on a 96-well plate in PBS buffer overnight at 4° C. at […], and the nonspecific binding sites were blocked with BSA.
# [10] = target: T2, hDII3-hFc (human delta-like ligand 3 …); assay: SPR BIACORE; ligand amine-coupled to CM-5 chip; antibody injected
# Source text: An alternative BIACORE™ format was used to assess cross-reactivity between anti-hDII4 antibody and either hDII1-hFc or hDII3-hFc.
Kd [1] [nM],EphrinB2 Expression IC50 [2] [nM],Hes1 Expression IC50 [2] [nM],binding result [3],binding result [4],binding result [5],Kd (hDII4-mFc [6]) [nM],Kd (hDII4-mFc [7]) [nM],koff (hDII4-mFc [7]) [s⁻¹],kon (hDII4-mFc [7]) [M⁻¹ s⁻¹],Kd (mmDII4-mFc) [nM],koff (mmDII4-mFc) [s⁻¹],kon (mmDII4-mFc) [M⁻¹ s⁻¹],HUVEC proliferation assay IC50 (dimeric hDII4-hFc [8]) [nM],IC50 (dimeric hDII4-hFc [9]) [nM],binding result [10],Binder
0.399,0.305,0.329,binds,binds,binds,0.018,0.0163,4.96e-06,302000,0.0147,4.64e-06,316000,0.096,0.05,–,"318518-01A10-D8 (antibody, human IgG1, HCVR 429 with hIgG1 constant region 950; also called REGN281; 318518-1A10-D8) heavy: not shown VL: EIVMTQSPATLSLSPGERATLSCRASQSVSSYLAWYQQKPGQAPRLLIYDASNRATGIPARFSGSGSGTDFTLTISSLEPEDFAVYYCQHRSNWPPTFGGGTKVEIK"
–,–,–,binds,binds,binds,–,0.0133,4.6e-06,346000,0.0098,4.15e-06,423000,–,–,no binding (tested: 300 µg/ml),"REGN422 (antibody, human IgG4 S228P, HCVR 901 with modified hIgG4 constant region 952) heavy: not shown VL: EIVLTQSPATLSLSPGERATLSCRASQSVSSYLAWYQQKPGQAPRLLIYDASNRATGIPARFSGSGSGTDFTLTISSLEPEDFAVYYCQHRSNWPPTFGGGTKVEIK"
–,–,–,binds,binds,binds,–,0.0137,4.7e-06,343000,0.013,3.8e-06,335000,–,–,no binding (tested: 300 µg/ml),"REGN421 (antibody, human IgG1, HCVR 901 with hIgG1 constant region 950) heavy: not shown VL: EIVLTQSPATLSLSPGERATLSCRASQSVSSYLAWYQQKPGQAPRLLIYDASNRATGIPARFSGSGSGTDFTLTISSLEPEDFAVYYCQHRSNWPPTFGGGTKVEIK"
